Read-outs that look alike come from different tables or passages of the source.
Experiments:
Assay in all cases: cell-based or functional assay
human RXFP1 [1] = molecular target: T1, human RXFP1 (human, UniProt Q9HBX9 1-757)
T1 sequence (looked up): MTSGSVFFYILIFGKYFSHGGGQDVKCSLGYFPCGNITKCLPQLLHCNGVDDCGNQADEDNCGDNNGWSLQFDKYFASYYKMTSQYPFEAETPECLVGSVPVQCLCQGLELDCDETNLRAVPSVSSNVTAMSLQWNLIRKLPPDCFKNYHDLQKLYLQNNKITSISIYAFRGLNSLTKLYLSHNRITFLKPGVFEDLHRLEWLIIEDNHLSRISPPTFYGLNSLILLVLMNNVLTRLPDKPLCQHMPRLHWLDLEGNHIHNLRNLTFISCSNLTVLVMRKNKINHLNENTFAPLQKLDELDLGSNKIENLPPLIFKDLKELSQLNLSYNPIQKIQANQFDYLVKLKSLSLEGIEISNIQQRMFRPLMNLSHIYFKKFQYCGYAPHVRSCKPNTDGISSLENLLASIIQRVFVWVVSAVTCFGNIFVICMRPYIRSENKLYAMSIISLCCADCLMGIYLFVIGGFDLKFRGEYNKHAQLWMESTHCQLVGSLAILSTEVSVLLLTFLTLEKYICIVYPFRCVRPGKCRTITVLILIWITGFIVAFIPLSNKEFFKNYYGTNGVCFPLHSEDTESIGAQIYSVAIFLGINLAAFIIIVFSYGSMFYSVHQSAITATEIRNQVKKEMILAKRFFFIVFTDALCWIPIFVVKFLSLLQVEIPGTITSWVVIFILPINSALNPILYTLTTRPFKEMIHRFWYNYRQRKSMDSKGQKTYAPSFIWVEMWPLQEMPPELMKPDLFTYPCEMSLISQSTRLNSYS

mouse RXFP1 [2] = molecular target: T2, mouse RXFP1 (mouse, UniProt Q6R6I7 1-758)
T2 sequence (looked up): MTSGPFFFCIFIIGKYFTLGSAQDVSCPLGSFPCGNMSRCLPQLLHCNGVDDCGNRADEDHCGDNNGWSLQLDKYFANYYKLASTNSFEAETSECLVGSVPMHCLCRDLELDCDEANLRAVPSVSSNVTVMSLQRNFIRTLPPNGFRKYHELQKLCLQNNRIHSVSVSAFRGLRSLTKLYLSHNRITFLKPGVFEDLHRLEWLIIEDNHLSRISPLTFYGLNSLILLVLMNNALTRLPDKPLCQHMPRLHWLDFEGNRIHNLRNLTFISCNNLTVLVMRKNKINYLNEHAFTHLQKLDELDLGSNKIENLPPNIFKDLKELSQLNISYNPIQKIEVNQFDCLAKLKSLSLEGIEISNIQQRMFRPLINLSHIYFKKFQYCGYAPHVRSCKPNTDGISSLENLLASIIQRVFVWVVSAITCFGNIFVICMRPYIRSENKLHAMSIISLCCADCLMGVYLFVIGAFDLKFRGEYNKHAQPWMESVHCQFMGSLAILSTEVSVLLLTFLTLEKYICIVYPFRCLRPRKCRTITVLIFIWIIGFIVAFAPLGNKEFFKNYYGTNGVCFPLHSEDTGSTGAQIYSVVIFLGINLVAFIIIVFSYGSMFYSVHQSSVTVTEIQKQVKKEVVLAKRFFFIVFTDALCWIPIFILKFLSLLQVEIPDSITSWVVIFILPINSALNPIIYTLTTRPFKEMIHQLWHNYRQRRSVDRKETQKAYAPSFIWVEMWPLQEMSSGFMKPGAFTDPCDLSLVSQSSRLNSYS

human RXFP2 [3] = molecular target: T3, human RXFP2 (human, UniProt Q8WXD0 1-754)
human RXFP1 [4] = molecular target: T1, human RXFP1; remark: listed apart in the source
mouse RXFP1 [5] = molecular target: T2, mouse RXFP1; remark: listed apart in the source
human RXFP2 [6] = molecular target: T3, human RXFP2; remark: listed apart in the source
human RXFP1 [7] = molecular target: T1, human RXFP1; remark: listed apart in the source
mouse RXFP1 [8] = molecular target: T2, mouse RXFP1; remark: listed apart in the source
human RXFP2 [9] = molecular target: T3, human RXFP2; remark: listed apart in the source

T3 sequence (Q8WXD0 whole entry): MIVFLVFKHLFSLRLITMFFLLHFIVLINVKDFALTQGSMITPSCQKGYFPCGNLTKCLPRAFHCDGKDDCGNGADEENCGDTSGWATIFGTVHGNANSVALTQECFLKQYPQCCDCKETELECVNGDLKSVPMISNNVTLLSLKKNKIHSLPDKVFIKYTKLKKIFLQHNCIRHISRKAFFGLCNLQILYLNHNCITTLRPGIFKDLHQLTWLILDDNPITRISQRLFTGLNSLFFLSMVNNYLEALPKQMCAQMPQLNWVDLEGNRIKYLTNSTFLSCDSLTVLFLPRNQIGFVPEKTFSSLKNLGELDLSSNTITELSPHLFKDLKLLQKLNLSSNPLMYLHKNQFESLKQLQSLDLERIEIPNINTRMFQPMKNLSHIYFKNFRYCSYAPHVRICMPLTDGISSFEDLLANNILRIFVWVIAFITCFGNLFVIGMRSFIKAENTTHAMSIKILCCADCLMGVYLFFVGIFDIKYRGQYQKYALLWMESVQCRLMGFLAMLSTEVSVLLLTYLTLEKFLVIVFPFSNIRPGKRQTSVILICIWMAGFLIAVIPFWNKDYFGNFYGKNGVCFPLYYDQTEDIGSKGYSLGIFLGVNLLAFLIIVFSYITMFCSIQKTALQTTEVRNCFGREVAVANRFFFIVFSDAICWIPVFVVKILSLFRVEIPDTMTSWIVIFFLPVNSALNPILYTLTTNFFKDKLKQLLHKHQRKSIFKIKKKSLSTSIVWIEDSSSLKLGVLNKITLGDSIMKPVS

- EC50 hRXFP1 (M), cAMP HTRF assay (human RXFP1 [1]): 4.47e-12 M
- EC50 mRXFP1 (M), cAMP HTRF assay (mouse RXFP1 [2]): 2.37e-12 M
- EC50 hRXFP2 (M), cAMP HTRF assay (human RXFP2 [3]): 1.78e-12 M
- EC50 hRXFP1 (M), cAMP HTRF assay (human RXFP1 [4]): 4.47e-12 M
- EC50 mRXFP1 (M), cAMP HTRF assay (mouse RXFP1 [5]): 2.37e-12 M
- EC50 hRXFP2 (M), cAMP HTRF assay (human RXFP2 [6]): 1.78e-12 M
- EC50 hRXFP1 (M), cAMP HTRF assay (human RXFP1 [7]): 4.47e-12 M
- EC50 mRXFP1 (M), cAMP HTRF assay (mouse RXFP1 [8]): 2.37e-12 M
- EC50 hRXFP2 (M), cAMP HTRF assay (human RXFP2 [9]): 1.78e-12 M
B1: RELAX0014 (ligand)
chain 1: MRVSEEWMDGFIRMCGREYARELIKICGASVGR
chain 2: ESGGLMSQQCCHVGCSRRSIAKLYC

Source: patent US20250295737A1 (AstraZeneca / MedImmune, published 2025)
